The values below come from patent CN105968202A (UNIV NANCHANG, dated 2016).

The target of assay [1] is T1, PSMA on LNCaP cells (前列腺癌细胞LNCaP表达PSMA) (UniProt Q04609 1-750, limits assumed).
T1 construct: whole, on cells; Endogenous PSMA on fixed LNCaP cells; PSMA-negative MKN45 gastric cancer cells served as the negative cell line; also called 前列腺特异性膜抗原
The assay is described as follows: cell ELISA (HRP-anti-M13, OD450) and immunofluorescence (anti-M13 + FITC secondary) on fixed LNCaP cells versus PSMA-negative MKN45 cells.

The target in assay [2] is T2, PSMA胞外区蛋白 (重组表达的前列腺特异性膜抗原膜外区) (UniProt Q04609 44-750, limits assumed).
T2 construct: extracellular domain; Expressed from vector pRAG2a in HEK-293 cells, purified with HisTrap FF Crude and detected with anti-His antibody, so it carries a His tag; also called PSMA蛋白; PSMA抗原
T2 sequence (Q04609 44-750 limits assumed): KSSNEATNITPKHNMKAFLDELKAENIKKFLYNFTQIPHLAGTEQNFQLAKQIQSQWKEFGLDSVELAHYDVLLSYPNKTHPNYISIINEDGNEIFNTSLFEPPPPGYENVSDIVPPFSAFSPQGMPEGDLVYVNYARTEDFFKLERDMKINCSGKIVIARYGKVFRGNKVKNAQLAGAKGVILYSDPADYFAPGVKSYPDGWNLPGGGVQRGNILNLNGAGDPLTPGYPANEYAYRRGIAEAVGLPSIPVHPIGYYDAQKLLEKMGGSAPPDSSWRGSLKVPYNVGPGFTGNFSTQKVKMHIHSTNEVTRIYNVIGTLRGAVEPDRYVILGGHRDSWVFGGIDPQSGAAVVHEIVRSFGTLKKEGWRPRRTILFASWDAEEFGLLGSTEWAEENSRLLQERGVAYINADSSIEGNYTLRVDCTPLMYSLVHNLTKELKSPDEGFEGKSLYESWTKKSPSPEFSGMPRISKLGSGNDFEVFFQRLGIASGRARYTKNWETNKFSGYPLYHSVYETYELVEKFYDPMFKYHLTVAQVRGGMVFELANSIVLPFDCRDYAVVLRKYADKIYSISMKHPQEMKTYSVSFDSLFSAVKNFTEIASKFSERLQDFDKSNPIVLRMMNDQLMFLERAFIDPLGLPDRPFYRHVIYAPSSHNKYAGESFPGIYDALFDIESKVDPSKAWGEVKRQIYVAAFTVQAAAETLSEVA
In words: indirect phage-ELISA, PSMA extracellular region coated at 5 μg/mL, HRP-anti-M13 detection (ELISA-positive clone). (In general: ELISA stands for enzyme-linked immunosorbent assay.)

T1 sequence (Q04609 whole entry): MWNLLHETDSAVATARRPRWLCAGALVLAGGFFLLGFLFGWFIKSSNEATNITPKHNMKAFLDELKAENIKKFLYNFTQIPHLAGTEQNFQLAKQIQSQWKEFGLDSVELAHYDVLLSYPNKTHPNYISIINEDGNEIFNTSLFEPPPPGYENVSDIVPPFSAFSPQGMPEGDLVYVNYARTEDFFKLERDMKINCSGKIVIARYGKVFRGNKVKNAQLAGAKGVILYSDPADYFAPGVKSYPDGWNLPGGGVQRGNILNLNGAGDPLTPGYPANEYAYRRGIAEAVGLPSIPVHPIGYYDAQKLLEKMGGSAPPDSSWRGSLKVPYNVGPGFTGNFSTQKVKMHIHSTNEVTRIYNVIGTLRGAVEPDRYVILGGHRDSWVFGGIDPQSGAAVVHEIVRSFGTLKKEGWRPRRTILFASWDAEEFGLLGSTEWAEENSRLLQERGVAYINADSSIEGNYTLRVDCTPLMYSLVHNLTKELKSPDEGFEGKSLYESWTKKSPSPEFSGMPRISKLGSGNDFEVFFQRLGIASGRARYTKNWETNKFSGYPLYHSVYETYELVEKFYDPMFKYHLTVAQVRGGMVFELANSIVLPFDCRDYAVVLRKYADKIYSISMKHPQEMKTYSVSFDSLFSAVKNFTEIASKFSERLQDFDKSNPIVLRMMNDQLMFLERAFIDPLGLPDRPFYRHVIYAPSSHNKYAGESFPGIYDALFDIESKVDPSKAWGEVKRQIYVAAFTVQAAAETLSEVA

B1: 抗前列腺特异性膜抗原单域重链抗体噬菌体阳性克隆 (VHH)
VHH: QVQLVESGGGLVQAGGSLRLSCVVSGRAFRRYAMGWFRQAPGKEREFVAAIRRSRSTYYADSVKGRFTISRDNAKKTVYLQMNSLKPEDTAVYYCAADPVDSVYNTLRAWGYWGQGTQVTVSS
notes: The phage coat protein fusion partner and any linker are not described; also called 针对前列腺特异性膜抗原的单域重链抗体阳性克隆; 展示本发明所述纳米抗体的噬菌体克隆
For the molecule B1, the binding result in assay [1] and in assay [2] was “binds” each time.
